Test results from WO2008112290A2 (dated 2008).

Molecular target: T1, Human EphB4 (Genbank ID No. NP_004435) (human, UniProt P54760 16-987, limits assumed)
T1 construct: Detected as denatured protein on Western blot (MAb265), on tissue sections (MAb131) and by immunoprecipitation (MAb47); also called EphB4 receptor
T1 sequence: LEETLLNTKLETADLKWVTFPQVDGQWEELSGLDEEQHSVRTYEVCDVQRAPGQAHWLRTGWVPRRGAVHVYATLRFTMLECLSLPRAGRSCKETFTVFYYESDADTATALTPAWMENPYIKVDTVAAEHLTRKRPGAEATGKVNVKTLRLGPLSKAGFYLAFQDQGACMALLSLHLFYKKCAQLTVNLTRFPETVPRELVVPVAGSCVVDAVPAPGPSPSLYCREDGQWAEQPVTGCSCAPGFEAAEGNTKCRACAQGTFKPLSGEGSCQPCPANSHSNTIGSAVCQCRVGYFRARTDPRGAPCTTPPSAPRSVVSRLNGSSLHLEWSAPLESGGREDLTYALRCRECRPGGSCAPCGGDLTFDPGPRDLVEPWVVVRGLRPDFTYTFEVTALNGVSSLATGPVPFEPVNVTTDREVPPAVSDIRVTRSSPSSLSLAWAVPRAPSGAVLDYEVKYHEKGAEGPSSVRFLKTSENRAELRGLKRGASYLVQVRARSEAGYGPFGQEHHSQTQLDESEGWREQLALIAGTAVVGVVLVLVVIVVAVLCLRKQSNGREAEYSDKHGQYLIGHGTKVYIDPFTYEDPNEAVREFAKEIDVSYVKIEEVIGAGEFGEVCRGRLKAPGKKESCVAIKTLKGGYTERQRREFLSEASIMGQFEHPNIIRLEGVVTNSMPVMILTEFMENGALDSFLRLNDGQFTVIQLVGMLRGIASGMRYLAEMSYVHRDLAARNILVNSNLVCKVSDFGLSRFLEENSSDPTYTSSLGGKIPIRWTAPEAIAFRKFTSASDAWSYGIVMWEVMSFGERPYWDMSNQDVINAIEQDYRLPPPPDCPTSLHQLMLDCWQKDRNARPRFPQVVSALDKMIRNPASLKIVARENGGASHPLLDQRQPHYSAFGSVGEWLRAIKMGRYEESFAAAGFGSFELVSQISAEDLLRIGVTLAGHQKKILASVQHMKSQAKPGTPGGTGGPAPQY
Experiment: Western blot

- binding result: binds
B1: mouse monoclonal antibody 265 (antibody, V domains shown)
VH: QQSGAELARPGASVKLSCKASGYTFTSYWMQWVKQRPGQGLEWIGAIYPGDGDTRYTQKFKGKATLTADKSSSTAYMQLSTLASEDSAVYYCARVGGWLLLAYWGQGTTVT
VL: DIVMTQSPSSLAMSVGQKVTMNCKSSQSLLNSNTQKNYLAWYQQKPGHSPKLLVYLSSTRESGVPDRFIGSGSGTDFTLTISSVQAEDLADYFCQQHYTTPLTFGAGTKLELKR
notes: Mouse monoclonal from a hybridoma; also called MAb265; MAB265
